Patent US20210171596A1 (published 2021)

T1: IL10R1-Fc (human, UniProt Q13651 22-235)
T1 chain: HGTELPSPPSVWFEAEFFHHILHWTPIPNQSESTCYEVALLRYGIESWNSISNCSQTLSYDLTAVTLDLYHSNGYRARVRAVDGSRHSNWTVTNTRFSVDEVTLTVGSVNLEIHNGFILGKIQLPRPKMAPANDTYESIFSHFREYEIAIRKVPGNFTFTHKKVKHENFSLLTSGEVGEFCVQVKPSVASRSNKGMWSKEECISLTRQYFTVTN


Biological target: T1, IL10R1-Fc
Assay: BLI; marked *

Kd [nM] | Binder
12.4 | XENP25768 (E151Q) (protein) chain 1: EPKSSDKTHTCPPCPAPPVAGPSVFLFPPKPKDTLMISRTPEVTCVVVDVKHEDPEVKFNWYVDGVEVHNAKTKPREEEYNSTYRVVSVLTVLHQDWLNGKEYKCKVSNKALPAPIEKTISKAKGQPREPQVYTLPPSREEMTKNQVSLTCDVSGFYPSDIAVEWESDGQPENNYKTTPPVLDSDGSFFLYSKLTVDKSRWEQGDVFSCSVMHEALHNHYTQKSLSLSPGK chain 2: SPGQGTQSENSCTHFPGNLPNMLRDLRDAFSRVKTFFQMKDQLDNLLLKESLLEDFKGYLGCQALSEMIQFYLEEVMPQAENQDPDIKAHVNSLGENLKTLRLRLRRCHRFLPCENGGGSGGKSKAVEQVKNAFNKLQEKGIYKAMSEFDIFINYIQAYMTMKIRNEPKSSDKTHTCPPCPAPPVAGPSVFLFPPKPKDTLMISRTPEVTCVVVDVKHEDPEVKFNWYVDGVEVHNAKTKPREEQYNSTYRVVSVLTVLHQDWLNGKEYKCKVSNKALPAPIEKTISKAKGQPREPQVYTLPPSREQMTKNQVKLTCLVKGFYPSDIAVEWESNGQPENNYKTTPPVLDSDGSFFLYSKLTVDKSRWQQGNVFSCSVMHEALHNHYTQKSLSLSPGK
6.13 | XENP25755 (Q38E) (protein) chain 1: EPKSSDKTHTCPPCPAPPVAGPSVFLFPPKPKDTLMISRTPEVTCVVVDVKHEDPEVKFNWYVDGVEVHNAKTKPREEEYNSTYRVVSVLTVLHQDWLNGKEYKCKVSNKALPAPIEKTISKAKGQPREPQVYTLPPSREEMTKNQVSLTCDVSGFYPSDIAVEWESDGQPENNYKTTPPVLDSDGSFFLYSKLTVDKSRWEQGDVFSCSVMHEALHNHYTQKSLSLSPGK chain 2: SPGQGTQSENSCTHFPGNLPNMLRDLRDAFSRVKTFFEMKDQLDNLLLKESLLEDFKGYLGCQALSEMIQFYLEEVMPQAENQDPDIKAHVNSLGENLKTLRLRLRRCHRFLPCENGGGSGGKSKAVEQVKNAFNKLQEKGIYKAMSEFDIFINYIEAYMTMKIRNEPKSSDKTHTCPPCPAPPVAGPSVFLFPPKPKDTLMISRTPEVTCVVVDVKHEDPEVKFNWYVDGVEVHNAKTKPREEQYNSTYRVVSVLTVLHQDWLNGKEYKCKVSNKALPAPIEKTISKAKGQPREPQVYTLPPSREQMTKNQVKLTCLVKGFYPSDIAVEWESNGQPENNYKTTPPVLDSDGSFFLYSKLTVDKSRWQQGNVFSCSVMHEALHNHYTQKSLSLSPGK
23.8 | XENP25767 (D144N) (protein) chain 1: EPKSSDKTHTCPPCPAPPVAGPSVFLFPPKPKDTLMISRTPEVTCVVVDVKHEDPEVKFNWYVDGVEVHNAKTKPREEEYNSTYRVVSVLTVLHQDWLNGKEYKCKVSNKALPAPIEKTISKAKGQPREPQVYTLPPSREEMTKNQVSLTCDVSGFYPSDIAVEWESDGQPENNYKTTPPVLDSDGSFFLYSKLTVDKSRWEQGDVFSCSVMHEALHNHYTQKSLSLSPGK chain 2: SPGQGTQSENSCTHFPGNLPNMLRDLRDAFSRVKTFFQMKDQLDNLLLKESLLEDFKGYLGCQALSEMIQFYLEEVMPQAENQDPDIKAHVNSLGENLKTLRLRLRRCHRFLPCENGGGSGGKSKAVEQVKNAFNKLQEKGIYKAMSEFNIFINYIEAYMTMKIRNEPKSSDKTHTCPPCPAPPVAGPSVFLFPPKPKDTLMISRTPEVTCVVVDVKHEDPEVKFNWYVDGVEVHNAKTKPREEQYNSTYRVVSVLTVLHQDWLNGKEYKCKVSNKALPAPIEKTISKAKGQPREPQVYTLPPSREQMTKNQVKLTCLVKGFYPSDIAVEWESNGQPENNYKTTPPVLDSDGSFFLYSKLTVDKSRWQQGNVFSCSVMHEALHNHYTQKSLSLSPGK
12.4 | XENP25757 (D41N) (protein) chain 1: EPKSSDKTHTCPPCPAPPVAGPSVFLFPPKPKDTLMISRTPEVTCVVVDVKHEDPEVKFNWYVDGVEVHNAKTKPREEEYNSTYRVVSVLTVLHQDWLNGKEYKCKVSNKALPAPIEKTISKAKGQPREPQVYTLPPSREEMTKNQVSLTCDVSGFYPSDIAVEWESDGQPENNYKTTPPVLDSDGSFFLYSKLTVDKSRWEQGDVFSCSVMHEALHNHYTQKSLSLSPGK chain 2: SPGQGTQSENSCTHFPGNLPNMLRDLRDAFSRVKTFFQMKNQLDNLLLKESLLEDFKGYLGCQALSEMIQFYLEEVMPQAENQDPDIKAHVNSLGENLKTLRLRLRRCHRFLPCENGGGSGGKSKAVEQVKNAFNKLQEKGIYKAMSEFDIFINYIEAYMTMKIRNEPKSSDKTHTCPPCPAPPVAGPSVFLFPPKPKDTLMISRTPEVTCVVVDVKHEDPEVKFNWYVDGVEVHNAKTKPREEQYNSTYRVVSVLTVLHQDWLNGKEYKCKVSNKALPAPIEKTISKAKGQPREPQVYTLPPSREQMTKNQVKLTCLVKGFYPSDIAVEWESNGQPENNYKTTPPVLDSDGSFFLYSKLTVDKSRWQQGNVFSCSVMHEALHNHYTQKSLSLSPGK
